Results on one molecule are retold here after paper doi:10.1101/2021.04.30.442189.

As a reminder, the stoichiometry N is the number of molecules, sites or subunits per partner or assembly.

For this test, the target named is T1, TRF2 (human), Q15554.
T1 chain: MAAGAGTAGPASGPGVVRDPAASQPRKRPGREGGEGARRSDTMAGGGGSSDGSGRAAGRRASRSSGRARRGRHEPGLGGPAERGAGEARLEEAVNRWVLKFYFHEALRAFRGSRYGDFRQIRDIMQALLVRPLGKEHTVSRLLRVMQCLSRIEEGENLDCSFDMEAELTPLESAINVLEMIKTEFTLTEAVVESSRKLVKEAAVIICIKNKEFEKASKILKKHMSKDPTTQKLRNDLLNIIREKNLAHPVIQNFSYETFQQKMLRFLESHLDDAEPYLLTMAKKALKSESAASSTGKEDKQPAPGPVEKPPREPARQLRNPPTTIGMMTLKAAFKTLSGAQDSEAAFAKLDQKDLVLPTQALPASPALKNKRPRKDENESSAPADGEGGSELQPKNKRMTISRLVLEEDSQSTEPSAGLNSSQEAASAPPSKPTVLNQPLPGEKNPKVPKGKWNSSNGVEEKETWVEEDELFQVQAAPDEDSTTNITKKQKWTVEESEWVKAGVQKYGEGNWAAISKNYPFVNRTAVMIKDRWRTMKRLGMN
Particulars: remark: other sources report otherwise.

B1: TRF2, Q15554 1-542 (natural protein)
chain: T1 chain
The molecule B1 registered a stoichiometry N of 2.
